Earlier results on one substance are cited in PMC8036930.

The series addresses albumin (Rattus norvegicus) (UniProt P02770).
Chain of UniProt P02770 (P02770 25-608): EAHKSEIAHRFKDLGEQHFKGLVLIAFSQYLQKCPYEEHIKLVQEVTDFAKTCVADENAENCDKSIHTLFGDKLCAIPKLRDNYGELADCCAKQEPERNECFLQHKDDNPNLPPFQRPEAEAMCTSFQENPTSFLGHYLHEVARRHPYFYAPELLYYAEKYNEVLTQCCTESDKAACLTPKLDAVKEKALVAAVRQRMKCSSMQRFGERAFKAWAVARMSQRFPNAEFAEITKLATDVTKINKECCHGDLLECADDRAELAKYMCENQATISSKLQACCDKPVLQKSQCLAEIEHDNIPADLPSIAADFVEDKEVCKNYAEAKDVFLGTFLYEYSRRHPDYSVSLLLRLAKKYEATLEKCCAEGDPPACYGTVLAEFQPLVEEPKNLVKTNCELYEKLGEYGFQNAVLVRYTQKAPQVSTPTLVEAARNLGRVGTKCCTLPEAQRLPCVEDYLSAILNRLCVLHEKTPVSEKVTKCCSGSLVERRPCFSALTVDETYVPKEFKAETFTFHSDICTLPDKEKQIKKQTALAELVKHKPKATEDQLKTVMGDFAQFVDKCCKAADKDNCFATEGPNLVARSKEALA

In the case of cubilin (from UniProt O70244), the Kd was 630 nM.
